Source: the DeepSol protein solubility set

assay: soluble on expression in E. coli; label from the status in PepcDB or PDB records

Question: For “MAHHHHHHMAVVVVQVGQCGNQLGDELWRQLKLTTNSGALPSPFFTRDRRARCVLVDSEPKVVTAVYERQKDVLRAENVIHGQSGRGNHWALGYYGVNDPLSHRAAENAVVARPFQVVKDQRRCDSHVVRNALRAIHAETRRTDDVMEFEAIIVLHSLVGGTGSGMATRLLEKIRYYFIEPLDSSLTVDECEEAEMMRHDGLDGMMMEKRRASYLVSITVAPQAVGELSTQGLNAALTLHALQENANAVLLLRNDDCIRVQEDSCAGGRPRGRGNTSFSTPSFSSIPSCATFKEINEVFLTMLLPILLYGRSTNAVGELVLKCSPNPREINNILTILPTPQRHYLRFKESVTVSRLYVLRGAMQNMPGVYPSVPIELIHTARSLRNPNLVTSREEVQVPKELLKGLKETAATRRSASVTLLQQMEGVLVLNEARELNAAVLFRLLRSAAMKVKAGAFLSTFEDMGMTAECIQAAIREVATRLSAAEEI”, which “soluble on expression in E. coli” value is on record?
Answer: The value was “not soluble”.

Question: For “MESVLNNEKAIVVFSGGQDSTTCLFYAKKHFKEVELVTFNYGQRHDTEIEVAKQIAQDQGMKHHVLDMSLLSQLTPNALTQHDMEITNNEDGIPNTFVPARNLLFLSFAGALAYQIGAKHIITGVCETDFSGYPDCRDSFIKSMNVTLSLAMDKDFVIHTPLMWLNKAETWKLSDELEVLDYIRTKTLTCYNGIIGDGCGECPACHLRQRGLNQYLESKGAL”, which “soluble on expression in E. coli” value is on record?
Answer: The value was “not soluble”.

Question: Which “soluble on expression in E. coli” value does the source give for “GALLHQRDQDMLVSILDLEKVSVEDIMIPRSDLVGIDVNDDWKKIQKQLTQANHTRVLLYRDSIDDVVGYIHARDALKLLSKNQFNKATLLRAVRELYFVPEGTPLNIQLLKFQHAKERIGLVVDEYGDIQGLVTLEDILEEIVGDFT” here?
Answer: The value was “not soluble”.

Question: With “MAHHHHHHMPSMSASRQAPKVSATARATKFSTIRKLPTAEHSTSPVAAAPTSSEEPSRLALISFDVDATIDTVNLLHEEQHRVSEEDATDKRIGRYHYAQLVARLNEQRSLYQSTAMFVETMLKEVNHSTEASVAMKASAATWGLKLLAKHAGHGAINAVLESLLPALYCEYNPKKLCSAPPAVQLQVRRPDVIMDNPYFTHSMFVDEVQVDKRSATKLQKSLEAALRANDQRRSIVCHLIERRRQQQLEVTFRCWRHHVRQQHLLRMMGDNTAKQRAEEMSRLRVQTVFYHWKLLVERSRSTYLTERLHEAAFQLENAKNQFQLQCYRADRLVKTAKEATEEMERVSQINKGLQRQVDELKEEQVRKEREYKEKLTRNVTQVLKLLETYDSLARVLLHSKQADEYVMPEKPLLARHSQSGDGGQEASENEASRLR” as the sequence, how does the “soluble on expression in E. coli” value read?
Answer: The value was “not soluble”.

Question: For “MSLLCLFAVFAFSCNEEMERLLTDDYPESGTEYTTGHVLMVVIDGASGIAVNEAYNTRKAPVIRSMTDKSLFTFYGLADNEEGVSKERGWANLLTGTTKNGLDVNQGIDELETPSFLQRLKEADENLKVSFYSSDTEFFGAFGSVANTKRKTSADSETADALIAEINGETISDIVVAQFGGVQQTGEQYGFWSNETTPTSEVIDAIYNVDAFIGKIMKALEARSRYVQENWLVVITSSYGGVYEGNVTPASEGHHHHHH”, which “soluble on expression in E. coli” value is on record?
Answer: The value was “soluble”.

Question: Which “soluble on expression in E. coli” value does the source give for “MSLSNDISILFVEDDKEVRAQISDFLTSNMFKDVYVANNGKDGLLKYNIHKPDIVLSDLNMPIMDGLEMSRAIKALDENTPILLITSNFEKNVTEAAVDIGIEGCLFKPLSLNRVEKILTKYIEKIMFQREFKNKQKLLEQYKSIIDISSSVTKTDINGIITYVNNPFCDMSGYSKDELLGKNHTIISHPDNSKEFYEEIYSTLRDKKIWRGHIKNRRKNGDSYYESSVIAPILDENDEIVECISLKQDITELYAEGHHHHHH” here?
Answer: Its value is “soluble”.

Question: For “MGSDKIHHHHHHMRPAFAGIDFGTSNSTVGVVRNGQPHLVALEGGQVTLPSAVFFNFEDGRICFGRQAIANYTDSVEGRLMRSLKSVLGSSLAHEKTRIKARSIGFMEIIGLFLGHLRKKLEEDGGDLVETVVLGRPVQFVDDDPQADANAQSDLEKAAHAQGFKHIAFQFEPIAAALDYEQRVTREELALIIDMGGGTSDFSVVRVSPERARLPDRKDDILASRGVHIGGTDFDRLLSIAHVMPQLGYLTPTKDGKRNLPASYFIDLATWQRINLVYTAKAMTHLRQIRYEAARADLVDRFIHIVEHRYGHALAALVEKAKIELTDLSSAEVAVRLSDVEFAAEITRDGLDATIAREIERVTATVAETMRDAAVKPSDITAVFLTGGSTAIPLARREILSLVPQASVIDGDMFGSVGLGLALDAQRKFG”, which “soluble on expression in E. coli” value is on record?
Answer: Its value is “not soluble”.

Question: For “SLHVTELTAFLVPLPLKREIKHASFTRTESINLLIRCKLSNGTIGWGEGVPRPYVTGETPEGCLQQLSQSNLHPALMQSASNWPEVIAICDALQFNNDSDDSRGCGSNSLRCAVELSLLDAFGRHFGQPVSAVVPHVAEAAEIHVRQPRVRYSTTITSSGAKSERISALKMRAYGFAQCKIKVGVDGQDDPSRVARIRRWIGGGVDLRLDANEAWRPEEVAEKMRPLREFGVTCIEQPVAHDQVDALASLRESIGVPIMLDESLTSRMDAERAIELGTCDLFNLRLSKCGGFLSCLRLAALARASGLGYQLGCHPGESGVLSAAGRHWASSVRDIRYLEGSYDRHLLTTLPTQEDITFRYGGWAPALDSPGLGVTIREDWLRQNAKAERTFVVEAQ”, which “soluble on expression in E. coli” value is on record?
Answer: The value was “soluble”.

Question: For “RLSDVLSADVYQQAHSPLSLALGVDIGGHPMVVDLAKMPHLLVAGTTGSGKSVGINAMILSILFKASPEQVRLIMVDPKMLELSVYDGIPHLLTPVVTDMKEAASALRWCVEEMERRYRLMAALGVRNLAGYNTKITEAAANGQPLLNPLWKPVDSMDETAPELQALPYVVVVIDELADMMMVVGKKVEQLIARIAQKARAAGIHMILATQRPSV”, which “soluble on expression in E. coli” value is on record?
Answer: Its value is “not soluble”.

Question: For “MGSDKIHHHHHHVSCDYFNRGLCQSCRLMSKPVTEQLLEKEARLTHLLGGLPVDERLAPVSGPEFGFRNKAKMVVMGAAHAPVLGIPGPDGQPVDLSHCPLYPQDMQALLLELTSFVRRAGIPPYRVDKAKGELKFILLTRSAVRGEFMLRFVLRSKDAIPRIERELPKLLADFPAIKVVSVNLQPVHMARLEGEEEIFLTQATRLDEVFNGVPLFIRPKSFFQTNPEVASRLYATAAKWVDELSPKSLWDLFCGVGGFGLHCANESLPVTGIEIEAEAIDCAKTSAAAMGLDNLSFAALDSTDFAMGQQAQEVPEVIIVNPPRRGIGEELCERLSAFGPRAIIYSSCNPETLAKDLALISGYRIARVQLFDMFPHSDHFEVLCLLLKEAACASAD”, which “soluble on expression in E. coli” value is on record?
Answer: The value was “not soluble”.

Question: With “MRWNRMNPFGSYKKVVSARSTLKEVLKKAQDGGIVSTAFIYGLENNLLDGVIVADNAGEFKAVPKVATTPEEVLEAAGTKYTVCPNISVLKSAVREYGCEKIGVVGTPCQVRAVRKLMKYPVGFRHVPDKIALIIGIFCMENFPYYGLKLIVEEHCGVKMEDVVKMDIGKGKFWVYTRWGETKAIKLKETHPYEQIACHVCTDYTAELADISTGSVGSPDGWSTVFIRTAKGEEIFNKMVEDGYLEVKPIEEVKPGLGLVEKLALQKKEKNMKEIEHRKELGLPIPYLEHHHHHH” as the sequence, how does the “soluble on expression in E. coli” value read?
Answer: Its value is “soluble”.

Question: For “MIIIQLNERQLKIIDIVKENEPITSESIASSLNVTRATLRSDLAILTMTGILDARPKVGYFYSGVSEINLIGKSVKEKTVEDIMSMPVLAKKDESIYDVIVTMFLSDVGSIVIIDENEELCGVVSRKDLLKATIGGSDINKMPIGMIMTRTPNVVTLTKGASVLLASRKIIEHEVDSIPIVEYKGEDKNHMRVVGRISKTNITKLFLEIVDN”, which “soluble on expression in E. coli” value is on record?
Answer: Its value is “not soluble”.
